Test results: article PMC6188088

Key:
[1] = test system: T1, TnpA IS1535 (WT) (Mycobacterium tuberculosis), ORF:81838cbf; assay: EMSA
T1 sequence: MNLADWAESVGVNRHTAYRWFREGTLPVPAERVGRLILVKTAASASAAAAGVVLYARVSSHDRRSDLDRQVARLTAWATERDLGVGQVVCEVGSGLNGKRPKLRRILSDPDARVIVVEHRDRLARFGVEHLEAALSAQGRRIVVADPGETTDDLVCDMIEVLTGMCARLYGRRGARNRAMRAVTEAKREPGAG

[2] = test system: TnpA IS1535 (WT) (Mycobacterium tuberculosis); assay: EMSA
[3] = molecular target: TnpA^IS1535, full length, wild type (Mycobacterium tuberculosis); assay: native gel or EMSA; TnpA (32 nM) and TnpA-MBP (8 to 256 nM), alone or mixed, incubated with the IS1535 LEΔ54 DNA probe, which gives only complex I; oligomer bound to DNA judged from the absence of a band of intermediate mobility
[4] = molecular target: TnpA^ISC1926 C-terminal domain (CTD), residues 65-221 (Sulfolobus islandicus); assay: crystal structure; TnpA^ISC1926 CTD (65-221), hanging drop, 20 mM MOPS pH 7.0, 100 mM Na-acetate, 0.1 mM DTT mixed with 8% tacsimate pH 4.0, 20% PEG3350, 25°C; 2.9 Å; two dimers in the asymmetric unit

Substance “AAAAAGAATTCCGACTCCGCCCAATCCGCCAGATTCACGCCGCCAATTAGAACACACTAACGCACACTAAAACACACTCAACACGCAACAGCTCTGAACCCCAGAGCGTTGGCCGACAAGCGCCCACCACACACGGACGTCTTTTT (double strand) [IS1535 LE 149 bp]” has a K half [1] of less than 10 nM.
In the case of IS1535 LE 149 bp, the K half [2] is reported as less than 10 nM.
IS1535 RE 139 bp was tested, and the binding signal ([2]; scale: % of probe as PEC) was 3.
“TnpA^IS1535, full length, wild type (enzyme)” was tested, and the stoichiometry N [3] was 2.
With “TnpA^ISC1926 C-terminal domain (CTD), residues 65-221 (domain or fragment)” the stoichiometry N [4] was 2.
